Our source for the SC50 (sEH values is paper PMC4666776.

Assay [1] addresses biotinylated nanobody S7 (llama (Lama glama)). As to the kind of experiment: ELISA. Background: ELISA stands for enzyme-linked immunosorbent assay.
In assay [2] the target is biotinylated nanobody S33 (llama (Lama glama)). As to the kind of experiment: ELISA.

B1: recombinant human soluble epoxide hydrolase (enzyme)
chain: MTLRAAVFDLDGVLALPAVFGVLGRTEEALALPRGLLNDAFQKGGPEGATTRLMKGEITLSQWIPLMEENCRKCSETAKVCLPKNFSIKEIFDKAISARKINRPMLQAALMLRKKGFTTAILTNTWLDDRAERDGLAQLMCELKMHFDFLIESCQVGMVKPEPQIYKFLLDTLKASPSEVVFLDDIGANLKPARDLGMVTILVQDTDTALKELEKVTGIQLLNTPAPLPTSCNPSDMSHGYVTVKPRVRLHFVELGSGPAVCLCHGFPESWYSWRYQIPALAQAGYRVLAMDMKGYGESSAPPEIEEYCMEVLCKEMVTFLDKLGLSQAVFIGHDWGGMLVWYMALFYPERVRAVASLNTPFIPANPNMSPLESIKANPVFDYQLYFQEPGVAEAELEQNLSRTFKSLFRASDESVLSMHKVCEAGGLFVNSPEEPSLSRMVTEEEIQFYVQQFKKSGFRGPLNWYRNMERNWKWACKSLGRKILIPALMVTAEKDFVLVPQMSQHMEDWIPHLKRGHIEDCGHWTQMDKPTEVNQILIKWLDSDARNPPVVSKM
Turning to B1, the SC50 (sEH at 50% signal saturation; detecting HA-tagged Nb S43) in assay [1] was found to be 3.97 ng/mL. Moreover, in assay [2], the SC50 (sEH at 50% signal saturation; detecting Nb S16) was 4100 ng/mL and the SC50 (sEH at 50% signal saturation; detecting Nb S49) stood at 249 ng/mL.
